The target of this assay is T1, Biot-CC2-LZ (Mus musculus, UniProt O88522).
T1 construct: made in house; host or cells: chemical synthesis
Description: HTRF assay, complex with Biot-CC2-LZ (negative and positive controls). Type of assay: binding. Particulars: 50 nM His-tagged protein with 50 nM Biot-CC2-LZ, Strept-Eu 2 nM, AntiHis-XL 7 nM. The source says: The Homogeneous Time Resolved Fluorescence (HTRF®) assay reagents anti-(His)6 monoclonal antibody labeled with XL665 (MABHis6-XL) and streptavidin-Europium cryptate (streptavidin-EuK) were purchased from CIS-Bio. The His-CC2-LZ peptide (SEQ ID NO: 30 and 31) was purified as described in Agou et al., 2004a and the biotin tagged CC2-LZ peptide (SEQ ID NO: 28 and 29) was chemically synthezised as described in Wyler et al., 2007.
In HTRF experiments, the pure His-CC2-LZ protein was labeled by anti-His-XL665 mAb and biot-CC2-LZ was labeled by streptavidin-EuK. Dimerization of His-CC2-LZ and Biot-CC2-LZ leads the donor (Steptavidin-EuK) and the acceptor (anti-His-XL665) into close proximity. Upon excitation of Europium cryptate at 320 nm, FRET occurs between these two fluorophores, and XL665 re-emits a specific long-lived fluorescence at 665 nm.
All experiments were carried out in a black microplate Greiner (200 μl) at 25° C. The excitation wavelength was 320 nm and the fluorescence emissions were measured at 620 nm and at 665 nm to normalize the specific signal. Fluorescence emission was recorded at both wavelengths after an 50 μs delay, which reduces background noise introduced by the media and the free acceptor molecules. The FRET signal is calculated using the following equation:
ΔF=[(R−Rneg)/Rneg]*100 (1) […]
(In general: Time-resolved FRET reads energy transfer from a long-lived donor to a nearby acceptor.)

These results are taken from US20100240040A1, “METHOD FOR SCREENING FOR SELECTIVE MODULATOR OF THE NF-KB PATHWAY ACTIVATION” (INSTITUT PASTEUR, priority 2007, published 2010).

B1: His-CC2-LZ: six his-tagged CC2-LZ peptide, recombinant, SEQ ID NO: 30 (humanised 31) (protein)
chain: MGSHHHHHHSSGLVPRGSHMASLEDLRQQLQQAEEALVAKQELIDKLKEEAEQHKIVMETVPVLKAQADIYKADFQAERHAREKLVEKKEYLQEQLEQLQREFNKL
Turning to B1, the “FRET (ΔF %)” value was “≦0%”.
